Earlier results on 1 substance are cited in PMC6803667, “Binding site plasticity in viral PPxY Late domain recognition by the third WW domain of human NEDD4” (Scientific Reports, 2019).

The target of this data set is ARRDC3 peptide (Homo sapiens).

Sequence of NEDD4 WW3 (P46934 837-876): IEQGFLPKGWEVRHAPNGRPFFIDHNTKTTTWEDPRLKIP

For orientation: Kd means the equilibrium constant for the complex coming apart. As for NEDD4 WW3 (from UniProt P46934), the dissociation constant Kd is 3000 nM.
